The data set relates to MutY (Escherichia coli). As to conditions: A.G to C-G correction by complementation of mutS mutY extract; fraction V.

With A.G mismatch heteroduplex, the activity came to 480000 units/mg.

The values are drawn from patent publication US5556750.
